Reference: IntAct's records for PubMed 28533415

B1: Vacuolar protein 8 (Saccharomyces cerevisiae), P39968 (parent)
chain: MGSCCSCLKDSSDEASVSPIADNEREAVTLLLGYLEDKDQLDFYSGGPLKALTTLVYSDNLNLQRSAALAFAEITEKYVRQVSREVLEPILILLQSQDPQIQVAACAALGNLAVNNENKLLIVEMGGLEPLINQMMGDNVEVQCNAVGCITNLATRDDNKHKIATSGALIPLTKLAKSKHIRVQRNATGALLNMTHSEENRKELVNAGAVPVLVSLLSSTDPDVQYYCTTALSNIAVDEANRKKLAQTEPRLVSKLVSLMDSPSSRVKCQATLALRNLASDTSYQLEIVRAGGLPHLVKLIQSDSIPLVLASVACIRNISIHPLNEGLIVDAGFLKPLVRLLDYKDSEEIQCHAVSTLRNLAASSEKNRKEFFESGAVEKCKELALDSPVSVQSEISACFAILALADVSKLDLLEANILDALIPMTFSQNQEVSGNAAAALANLCSRVNNYTKIIEAWDRPNEGIRGFLIRFLKSDYATFEHIALWTILQLLESHNDKVEDLVKNDDDIINGVRKMADVTFERLQRSGIDVKNPGSNNNPSSNDNNSNNNDTGSEHQPVEDASLELYNITQQILQFLH
partner: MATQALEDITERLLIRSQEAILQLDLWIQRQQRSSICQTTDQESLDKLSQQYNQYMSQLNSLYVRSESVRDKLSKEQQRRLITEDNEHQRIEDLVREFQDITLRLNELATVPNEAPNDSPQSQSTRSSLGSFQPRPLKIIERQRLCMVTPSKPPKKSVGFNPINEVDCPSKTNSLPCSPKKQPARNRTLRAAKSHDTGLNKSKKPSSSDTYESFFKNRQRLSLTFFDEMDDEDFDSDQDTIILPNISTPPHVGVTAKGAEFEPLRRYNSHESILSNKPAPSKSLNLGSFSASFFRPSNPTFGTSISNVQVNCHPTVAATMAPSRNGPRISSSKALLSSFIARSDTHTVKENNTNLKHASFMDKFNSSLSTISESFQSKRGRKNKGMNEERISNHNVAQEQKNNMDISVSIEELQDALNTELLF
B2: Vacuolar protein 8 (Saccharomyces cerevisiae), P39968 (parent)
chain: B1 chain
partner: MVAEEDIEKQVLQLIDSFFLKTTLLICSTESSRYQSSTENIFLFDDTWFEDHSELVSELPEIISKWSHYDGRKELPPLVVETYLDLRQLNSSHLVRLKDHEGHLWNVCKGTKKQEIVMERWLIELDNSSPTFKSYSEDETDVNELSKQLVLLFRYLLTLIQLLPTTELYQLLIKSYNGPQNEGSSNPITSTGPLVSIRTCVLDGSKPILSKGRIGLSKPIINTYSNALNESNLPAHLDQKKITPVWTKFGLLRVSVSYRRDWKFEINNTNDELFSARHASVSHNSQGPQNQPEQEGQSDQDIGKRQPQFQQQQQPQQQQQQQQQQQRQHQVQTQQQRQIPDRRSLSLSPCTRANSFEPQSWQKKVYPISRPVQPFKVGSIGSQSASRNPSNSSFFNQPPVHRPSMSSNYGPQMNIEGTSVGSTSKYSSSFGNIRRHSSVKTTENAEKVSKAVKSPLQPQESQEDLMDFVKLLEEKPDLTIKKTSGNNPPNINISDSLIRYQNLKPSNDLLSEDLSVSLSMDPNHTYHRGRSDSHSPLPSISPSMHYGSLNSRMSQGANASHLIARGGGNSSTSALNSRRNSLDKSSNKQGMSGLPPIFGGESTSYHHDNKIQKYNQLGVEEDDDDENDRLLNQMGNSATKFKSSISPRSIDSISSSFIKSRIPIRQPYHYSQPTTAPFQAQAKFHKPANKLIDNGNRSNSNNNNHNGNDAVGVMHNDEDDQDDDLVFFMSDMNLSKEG
B3: Vacuolar protein 8 (Saccharomyces cerevisiae), P39968 (parent)
chain: B1 chain
partner: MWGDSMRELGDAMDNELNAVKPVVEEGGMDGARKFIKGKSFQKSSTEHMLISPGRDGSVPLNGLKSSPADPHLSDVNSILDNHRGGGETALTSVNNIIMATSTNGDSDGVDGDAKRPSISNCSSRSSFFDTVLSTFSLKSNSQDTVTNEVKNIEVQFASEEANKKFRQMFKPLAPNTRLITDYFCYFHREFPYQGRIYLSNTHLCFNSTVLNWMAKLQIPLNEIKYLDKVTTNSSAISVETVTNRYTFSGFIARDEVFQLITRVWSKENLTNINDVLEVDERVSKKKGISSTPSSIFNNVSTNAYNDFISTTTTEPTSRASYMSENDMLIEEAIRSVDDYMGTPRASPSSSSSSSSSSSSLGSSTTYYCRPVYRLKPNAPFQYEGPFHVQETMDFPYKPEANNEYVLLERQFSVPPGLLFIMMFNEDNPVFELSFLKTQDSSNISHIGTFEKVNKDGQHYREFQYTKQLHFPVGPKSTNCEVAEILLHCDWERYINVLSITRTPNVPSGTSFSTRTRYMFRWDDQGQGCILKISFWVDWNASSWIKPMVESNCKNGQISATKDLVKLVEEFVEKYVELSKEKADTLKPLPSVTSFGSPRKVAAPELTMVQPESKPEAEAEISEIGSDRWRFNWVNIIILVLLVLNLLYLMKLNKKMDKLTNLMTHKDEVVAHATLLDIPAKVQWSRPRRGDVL
B4: Vacuolar protein 8 (Saccharomyces cerevisiae), P39968 (parent)
chain: B1 chain
partner: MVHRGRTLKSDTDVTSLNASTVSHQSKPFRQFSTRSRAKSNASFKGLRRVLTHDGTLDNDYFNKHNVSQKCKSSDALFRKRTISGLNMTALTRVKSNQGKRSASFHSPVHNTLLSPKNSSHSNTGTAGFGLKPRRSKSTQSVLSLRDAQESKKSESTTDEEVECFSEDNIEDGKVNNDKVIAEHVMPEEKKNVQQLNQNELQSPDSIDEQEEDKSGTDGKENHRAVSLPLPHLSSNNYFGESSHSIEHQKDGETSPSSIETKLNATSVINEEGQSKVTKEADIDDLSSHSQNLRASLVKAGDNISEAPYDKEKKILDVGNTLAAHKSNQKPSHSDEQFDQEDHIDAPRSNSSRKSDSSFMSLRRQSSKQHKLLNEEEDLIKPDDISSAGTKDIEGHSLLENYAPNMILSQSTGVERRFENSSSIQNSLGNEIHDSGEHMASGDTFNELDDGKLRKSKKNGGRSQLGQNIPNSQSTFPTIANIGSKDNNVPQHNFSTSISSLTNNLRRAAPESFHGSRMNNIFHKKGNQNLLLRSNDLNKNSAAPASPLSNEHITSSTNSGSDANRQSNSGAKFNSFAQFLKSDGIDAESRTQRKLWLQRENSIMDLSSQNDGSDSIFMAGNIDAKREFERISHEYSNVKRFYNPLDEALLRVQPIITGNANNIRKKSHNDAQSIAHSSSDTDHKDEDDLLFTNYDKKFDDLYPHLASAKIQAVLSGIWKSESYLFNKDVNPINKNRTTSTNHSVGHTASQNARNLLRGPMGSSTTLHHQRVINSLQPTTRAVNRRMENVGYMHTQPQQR

Variants of: B1
Conditions: with vac17_yeast VAC17, P25591
In the case of MGSCCSCLKDSSDEASVSPIADNEREAVTLLLGYLEDKDQLDFYSGGPLKALTTLVYSDNLNLQRSAALAFAEITEKYVRQVSREVLEPILILLQSQDPQIQVAACAALGNLAVNNENKLLIVEMGGLEPLINQMMGDNVEVQCNAVGCITNLATRDDNKHKIATSGALIPLTKLAKSKHIRVQRNATGALLNMTHSEENRKELVNAGAVPVLVSLLSSTDPDVQYYCTTALSNIAVDEANRKKLAQTEPRLVSKLVSLMDSPSSRVKCQATLALENLASDTSYQLEIVRAGGLPHLVKLIQSDSIPLVLASVACIENISIHPLNEGLIVDAGFLKPLVRLLDYKDSEEIQCHAVSTLENLAASSEKNRKEFFESGAVEKCKELALDSPVSVQSEISACFAILALADVSKLDLLEANILDALIPMTFSQNQEVSGNAAAALANLCSRVNNYTKIIEAWDRPNEGIRGFLIRFLKSDYATFEHIALWTILQLLESHNDKVEDLVKNDDDIINGVRKMADVTFERLQRSGIDVKNPGSNNNPSSNDNNSNNNDTGSEHQPVEDASLELYNITQQILQFLH [R276E;R317E;R359E], the “effect of a mutation on the interaction” value is reported as “with no effect”.

Variants of: B2
Conditions: with atg13_yeast ATG13, Q06628
MGSCCSCLKDSSDEASVSPIADNEREAVTLLLGYLEDKDQLDFYSGGPLKALTTLVYSDNLNLQRSAALAFAEITEKYVRQVSREVLEPILILLQSQDPQIQVAACAALGNLAVNNENKLLIVEMGGLEPLINQMMGDNVEVQCNAVGCITNLATRDDNKHKIATSGALIPLTKLAKSKHIRVQRNATGALLNMTHSEENRKELVNAGAVPVLVSLLSSTDPDVQYYCTTALSNIAVDEANRKKLAQTEPRLVSKLVSLMDSPSSRVKCQATLALENLASDTSYQLEIVRAGGLPHLVKLIQSDSIPLVLASVACIENISIHPLNEGLIVDAGFLKPLVRLLDYKDSEEIQCHAVSTLENLAASSEKNRKEFFESGAVEKCKELALDSPVSVQSEISACFAILALADVSKLDLLEANILDALIPMTFSQNQEVSGNAAAALANLCSRVNNYTKIIEAWDRPNEGIRGFLIRFLKSDYATFEHIALWTILQLLESHNDKVEDLVKNDDDIINGVRKMADVTFERLQRSGIDVKNPGSNNNPSSNDNNSNNNDTGSEHQPVEDASLELYNITQQILQFLH [R276E;R317E;R359E] was tested, and the “effect of a mutation on the interaction” value was “disrupting interaction strength”.

Variants of: B3
Conditions: with lam6_yeast LAM6, Q08001
In the case of MGSCCSCLKDSSDEASVSPIADNEREAVTLLLGYLEDKDQLDFYSGGPLKALTTLVYSDNLNLQRSAALAFAEITEKYVRQVSREVLEPILILLQSQDPQIQVAACAALGNLAVNNENKLLIVEMGGLEPLINQMMGDNVEVQCNAVGCITNLATRDDNKHKIATSGALIPLTKLAKSKHIRVQRNATGALLNMTHSEENRKELVNAGAVPVLVSLLSSTDPDVQYYCTTALSNIAVDEANRKKLAQTEPRLVSKLVSLMDSPSSRVKCQATLALENLASDTSYQLEIVRAGGLPHLVKLIQSDSIPLVLASVACIENISIHPLNEGLIVDAGFLKPLVRLLDYKDSEEIQCHAVSTLENLAASSEKNRKEFFESGAVEKCKELALDSPVSVQSEISACFAILALADVSKLDLLEANILDALIPMTFSQNQEVSGNAAAALANLCSRVNNYTKIIEAWDRPNEGIRGFLIRFLKSDYATFEHIALWTILQLLESHNDKVEDLVKNDDDIINGVRKMADVTFERLQRSGIDVKNPGSNNNPSSNDNNSNNNDTGSEHQPVEDASLELYNITQQILQFLH [R276E;R317E;R359E], the “effect of a mutation on the interaction” value is reported as “with no effect”.

Variants of: B4
Conditions: with tco89_yeast TCO89, Q08921
With MGSCCSCLKDSSDEASVSPIADNEREAVTLLLGYLEDKDQLDFYSGGPLKALTTLVYSDNLNLQRSAALAFAEITEKYVRQVSREVLEPILILLQSQDPQIQVAACAALGNLAVNNENKLLIVEMGGLEPLINQMMGDNVEVQCNAVGCITNLATRDDNKHKIATSGALIPLTKLAKSKHIRVQRNATGALLNMTHSEENRKELVNAGAVPVLVSLLSSTDPDVQYYCTTALSNIAVDEANRKKLAQTEPRLVSKLVSLMDSPSSRVKCQATLALENLASDTSYQLEIVRAGGLPHLVKLIQSDSIPLVLASVACIENISIHPLNEGLIVDAGFLKPLVRLLDYKDSEEIQCHAVSTLENLAASSEKNRKEFFESGAVEKCKELALDSPVSVQSEISACFAILALADVSKLDLLEANILDALIPMTFSQNQEVSGNAAAALANLCSRVNNYTKIIEAWDRPNEGIRGFLIRFLKSDYATFEHIALWTILQLLESHNDKVEDLVKNDDDIINGVRKMADVTFERLQRSGIDVKNPGSNNNPSSNDNNSNNNDTGSEHQPVEDASLELYNITQQILQFLH [R276E;R317E;R359E] the “effect of a mutation on the interaction” value was “with no effect”.
